# Measured values as given in IntAct's records for PubMed 21771788.
# B1: Mitogen-activated protein kinase kinase kinase 5 (Homo sapiens), Q99683 (parent)
# chain: MSTEADEGITFSVPPFAPSGFCTIPEGGICRRGGAAAVGEGEEHQLPPPPPGSFWNVESAAAPGIGCPAATSSSSATRGRGSSVGGGSRRTTVAYVINEASQGQLVVAESEALQSLREACETVGATLETLHFGKLDFGETTVLDRFYNADIAVVEMSDAFRQPSLFYHLGVRESFSMANNIILYCDTNSDSLQSLKEIICQKNTMCTGNYTFVPYMITPHNKVYCCDSSFMKGLTELMQPNFELLLGPICLPLVDRFIQLLKVAQASSSQYFRESILNDIRKARNLYTGKELAAELARIRQRVDNIEVLTADIVINLLLSYRDIQDYDSIVKLVETLEKLPTFDLASHHHVKFHYAFALNRRNLPGDRAKALDIMIPMVQSEGQVASDMYCLVGRIYKDMFLDSNFTDTESRDHGASWFKKAFESEPTLQSGINYAVLLLAAGHQFESSFELRKVGVKLSSLLGKKGNLEKLQSYWEVGFFLGASVLANDHMRVIQASEKLFKLKTPAWYLKSIVETILIYKHFVKLTTEQPVAKQELVDFWMDFLVEATKTDVTVVRFPVLILEPTKIYQPSYLSINNEVEEKTISIWHVLPDDKKGIHEWNFSASSVRGVSISKFEERCCFLYVLHNSDDFQIYFCTELHCKKFFEMVNTITEEKGRSTEEGDCESDLLEYDYEYDENGDRVVLGKGTYGIVYAGRDLSNQVRIAIKEIPERDSRYSQPLHEEIALHKHLKHKNIVQYLGSFSENGFIKIFMEQVPGGSLSALLRSKWGPLKDNEQTIGFYTKQILEGLKYLHDNQIVHRDIKGDNVLINTYSGVLKISDFGTSKRLAGINPCTETFTGTLQYMAPEIIDKGPRGYGKAADIWSLGCTIIEMATGKPPFYELGEPQAAMFKVGMFKVHPEIPESMSAEAKAFILKCFEPDPDKRACANDLLVDEFLKVSSKKKKTQPKLSALSAGSNEYLRSISLPVPVLVEDTSSSSEYGSVSPDTELKVDPFSFKTRAKSCGERDVKGIRTLFLGIPDENFEDHSAPPSPEEKDSGFFMLRKDSERRATLHRILTEDQDKIVRNLMESLAQGAEEPKLKWEHITTLIASLREFVRSTDRKIIATTLSKLKLELDFDSHGISQVQVVLFGFQDAVNKVLRNHNIKPHWMFALDSIIRKAVQTAITILVPELRPHFSLASESDTADQEDLDVEDDHEEQPSNQTVRRPQAVIEDAVATSGVSTLSSTVSHDSQSAHRSLNVQLGRMKIETNRLLEELVRKEKELQALLHRAIEEKDQEIKHLKLKSQPIEIPELPVFHLNSSGTNTEDSELTDWLRVNGADEDTISRFLAEDYTLLDVLYYVTRDDLKCLRLRGGMLCTLWKAIIDFRNKQT
# partner: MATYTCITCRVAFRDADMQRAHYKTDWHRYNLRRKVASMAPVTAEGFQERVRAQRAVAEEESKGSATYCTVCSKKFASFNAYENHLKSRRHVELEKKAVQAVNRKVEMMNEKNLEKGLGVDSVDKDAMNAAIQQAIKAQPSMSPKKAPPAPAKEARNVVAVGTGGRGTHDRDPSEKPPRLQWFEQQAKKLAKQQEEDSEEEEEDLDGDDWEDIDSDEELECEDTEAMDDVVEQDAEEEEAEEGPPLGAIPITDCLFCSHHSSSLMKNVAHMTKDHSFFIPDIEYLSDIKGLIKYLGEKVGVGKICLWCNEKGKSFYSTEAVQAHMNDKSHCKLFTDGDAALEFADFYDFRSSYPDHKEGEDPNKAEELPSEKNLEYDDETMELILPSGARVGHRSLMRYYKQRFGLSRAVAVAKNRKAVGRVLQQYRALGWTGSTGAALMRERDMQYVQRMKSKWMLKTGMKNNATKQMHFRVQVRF
# B2: Cytoplasmic 60S subunit biogenesis factor ZNF622 (Homo sapiens), Q969S3 (parent)
# chain: B1 partner
# Variants of: B1
# Details: with zn622_human ZNF622, Q969S3
row,Variant,effect of a mutation on the interaction
1,C1351S;C1360S,disrupting interaction
2,C1351S,decreasing interaction
3,C1360S,decreasing interaction

# Variants of: B1
# Details: with zn622_human ZNF622, Q969S3
# Remark: another data set of the same source
row,Variant,effect of a mutation on the interaction
1,C1351S;C1360S,disrupting interaction

# Variants of: B2
# Details: with m3k5_human MAP3K5, Q99683
row,Variant,effect of a mutation on the interaction
1,MATYTCITCRVAFRDADMQRAHYKTDWHRYNLRRKVASMAPVTAEGFQERVRAQRAVAEEESKGSATYCTVCSKKFASFNAYENHLKSRRHVELEKKAVQAVNRKVEMMNEKNLEKGLGVDSVDKDAMNAAIQQAIKAQPSMSPKKAPPAPAKEARNVVAVGTGGRGTHDRDPSEKPPRLQWFEQQAKKLAKQQEEDSEEEEEDLDGDDWEDIDSDEELECEDTEAMDDVVEQDAEEEEAEEGPPLGAIPITDCLFCSHHSSSLMKNVAHMTKDHSFFIPDIEYLSDIKGLIKYLGEKVGVGKISLWCNEKGKSFYSTEAVQAHMNDKSHCKLFTDGDAALEFADFYDFRSSYPDHKEGEDPNKAEELPSEKNLEYDDETMELILPSGARVGHRSLMRYYKQRFGLSRAVAVAKNRKAVGRVLQQYRALGWTGSTGAALMRERDMQYVQRMKSKWMLKTGMKNNATKQMHFRVQVRF [C305S],decreasing interaction
2,MATYTCITCRVAFRDADMQRAHYKTDWHRYNLRRKVASMAPVTAEGFQERVRAQRAVAEEESKGSATYCTVCSKKFASFNAYENHLKSRRHVELEKKAVQAVNRKVEMMNEKNLEKGLGVDSVDKDAMNAAIQQAIKAQPSMSPKKAPPAPAKEARNVVAVGTGGRGTHDRDPSEKPPRLQWFEQQAKKLAKQQEEDSEEEEEDLDGDDWEDIDSDEELECEDTEAMDDVVEQDAEEEEAEEGPPLGAIPITDCLFCSHHSSSLMKNVAHMTKDHSFFIPDIEYLSDIKGLIKYLGEKVGVGKISLWSNEKGKSFYSTEAVQAHMNDKSHCKLFTDGDAALEFADFYDFRSSYPDHKEGEDPNKAEELPSEKNLEYDDETMELILPSGARVGHRSLMRYYKQRFGLSRAVAVAKNRKAVGRVLQQYRALGWTGSTGAALMRERDMQYVQRMKSKWMLKTGMKNNATKQMHFRVQVRF [C305S;C308S],disrupting interaction
3,MATYTCITCRVAFRDADMQRAHYKTDWHRYNLRRKVASMAPVTAEGFQERVRAQRAVAEEESKGSATYCTVCSKKFASFNAYENHLKSRRHVELEKKAVQAVNRKVEMMNEKNLEKGLGVDSVDKDAMNAAIQQAIKAQPSMSPKKAPPAPAKEARNVVAVGTGGRGTHDRDPSEKPPRLQWFEQQAKKLAKQQEEDSEEEEEDLDGDDWEDIDSDEELECEDTEAMDDVVEQDAEEEEAEEGPPLGAIPITDCLFCSHHSSSLMKNVAHMTKDHSFFIPDIEYLSDIKGLIKYLGEKVGVGKICLWSNEKGKSFYSTEAVQAHMNDKSHCKLFTDGDAALEFADFYDFRSSYPDHKEGEDPNKAEELPSEKNLEYDDETMELILPSGARVGHRSLMRYYKQRFGLSRAVAVAKNRKAVGRVLQQYRALGWTGSTGAALMRERDMQYVQRMKSKWMLKTGMKNNATKQMHFRVQVRF [C308S],decreasing interaction
